Source: article PMC3430658, “Investigation of Real-Time Photorepair Activity on DNA via Surface Plasmon Resonance”

How the values were obtained:
[1] = biological target: T1, VcPHR (CPD photolyase, MBP fusion) (Vibrio cholerae, UniProt Q9KNA8 1-469); experiment: SPR; photoactivated, DTT; repair during injection; SPR (SensiQ Discovery, neutravidin BioCap chip), 1X PBS (10 mM phosphate, 2.7 mM KCl, 137 mM NaCl) pH 7.4, 0.005% Tween 20, 25 C, 50 uL/min; protein in PBS with 1 mM DTT; conditions: protein: recombinant, tags: MBP (pMal-c2x, pUNC2001)
T1 sequence: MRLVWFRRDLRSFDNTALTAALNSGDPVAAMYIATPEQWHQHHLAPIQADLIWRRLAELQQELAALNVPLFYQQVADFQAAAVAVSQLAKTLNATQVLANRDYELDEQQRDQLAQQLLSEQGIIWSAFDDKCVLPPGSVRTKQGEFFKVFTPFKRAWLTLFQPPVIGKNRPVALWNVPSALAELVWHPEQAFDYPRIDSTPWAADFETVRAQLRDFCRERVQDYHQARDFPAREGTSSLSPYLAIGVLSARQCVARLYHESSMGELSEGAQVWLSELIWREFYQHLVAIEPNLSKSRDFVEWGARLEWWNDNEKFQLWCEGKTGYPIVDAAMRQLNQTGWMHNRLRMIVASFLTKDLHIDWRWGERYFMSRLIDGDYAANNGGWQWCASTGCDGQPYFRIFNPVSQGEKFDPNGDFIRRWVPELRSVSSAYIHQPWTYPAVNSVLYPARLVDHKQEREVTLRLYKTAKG

[2] = biological target: T2, CRY-DASH (VcCry1, MBP fusion) (Vibrio cholerae, UniProt Q9KR33 1-461); experiment: as above; conditions: protein: recombinant; tags: MBP (pMal-c2x, pUNC2002); label: 5'-biotin
T2 sequence: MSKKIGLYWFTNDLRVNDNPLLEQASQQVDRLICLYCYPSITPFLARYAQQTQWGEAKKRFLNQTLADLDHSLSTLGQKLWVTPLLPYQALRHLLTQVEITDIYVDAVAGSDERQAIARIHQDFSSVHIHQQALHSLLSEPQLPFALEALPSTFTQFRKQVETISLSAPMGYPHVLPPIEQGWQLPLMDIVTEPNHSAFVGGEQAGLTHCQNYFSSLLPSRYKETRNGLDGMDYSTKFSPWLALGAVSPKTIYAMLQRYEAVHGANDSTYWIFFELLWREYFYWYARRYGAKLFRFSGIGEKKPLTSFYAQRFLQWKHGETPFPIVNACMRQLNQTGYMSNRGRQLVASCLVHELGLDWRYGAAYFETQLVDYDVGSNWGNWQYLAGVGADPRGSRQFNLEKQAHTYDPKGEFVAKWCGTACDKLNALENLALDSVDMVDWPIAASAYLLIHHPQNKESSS

[3] = biological target: T1, VcPHR (CPD photolyase, MBP fusion); experiment: SPR; photoactivated, DTT; described as nonspecific; SPR (SensiQ Discovery, neutravidin BioCap chip), 1X PBS (10 mM phosphate, 2.7 mM KCl, 137 mM NaCl) pH 7.4, 0.005% Tween 20, 25 C, 50 uL/min; protein in PBS with 1 mM DTT; conditions: protein: recombinant, tags: MBP (pMal-c2x, pUNC2001)
[4] = biological target: T2, CRY-DASH (VcCry1, MBP fusion); experiment: as above; conditions: protein: recombinant; tags: MBP (pMal-c2x, pUNC2002); label: 5'-biotin on strand 1; blunt
[5] = biological target: T2, CRY-DASH (VcCry1, MBP fusion); experiment: SPR; photoactivated, DTT; no significant binding, similar to BSA; SPR (SensiQ Discovery, neutravidin BioCap chip), 1X PBS (10 mM phosphate, 2.7 mM KCl, 137 mM NaCl) pH 7.4, 0.005% Tween 20, 25 C, 50 uL/min; protein in PBS with 1 mM DTT; conditions: protein: recombinant; tags: MBP (pMal-c2x, pUNC2002); label: 5'-biotin on strand 1; blunt
[6] = biological target: T2, CRY-DASH (VcCry1, MBP fusion); experiment: SPR; photoactivated, DTT; nonspecific, similar to BSA; SPR (SensiQ Discovery, neutravidin BioCap chip), 1X PBS (10 mM phosphate, 2.7 mM KCl, 137 mM NaCl) pH 7.4, 0.005% Tween 20, 25 C, 50 uL/min; protein in PBS with 1 mM DTT; conditions: protein: recombinant; tags: MBP (pMal-c2x, pUNC2002); label: 5'-biotin
[7] = label: 5'-biotin on strand 1, blunt

GACGCAGATCTACGAATTCGCTTAATTCGCTGCACCGGATCCCGCTAG (ssDNA, UV 254 nm irradiated, mostly CPD (mixed lesions, positions not defined)) [UV-damaged ssDNA 48-mer]
Kd ([1]; label: 5'-biotin): 0.0012 µM
Kd [2]: 0.0637 µM

B1: undamaged dsDNA 48-mer (dsDNA)
DNA 1: GACGCAGATCTACGAATTCGCTTAATTCGCTGCACCGGATCCCGCTAG
DNA 2: CTAGCGGGATCCGGTGCAGCGAATTAAGCGAATTCGTAGATCTGCGTC
Kd [3, 7]: 18.7 µM
Kd [4]: 52.1 µM

B2: UV-damaged dsDNA 48-mer (dsDNA)
DNA 1: GACGCAGATCTACGAATTCGCTTAATTCGCTGCACCGGATCCCGCTAG
DNA 2: CTAGCGGGATCCGGTGCAGCGAATTAAGCGAATTCGTAGATCTGCGTC
modifications: strand 1 UV 254 nm irradiated, mostly CPD (mixed lesions, positions not defined); complement undamaged
Kd [5]: 17.8 µM
Kd [1, 7]: 0.022 µM

GACGCAGATCTACGAATTCGCTTAATTCGCTGCACCGGATCCCGCTAG (ssDNA) [undamaged ssDNA 48-mer]
Kd [6]: 117 µM
Kd ([3]; label: 5'-biotin): 14 µM
